# According to the RNAGym collection of RNA variant scans (doi:10.1021/acssynbio.7b00057):
# B1: Pistol ribozyme (parent)
# chain: GGGUCGUUGUUCCAUAAUCGCGUGGAUAUGGCACGCAAGUUUCUACCGGGCACCGUAAAUGUCCGACUGGAGCCGUUCGGGCGGCUAUAAACAGACCUCAGGCCCGAAGCGUGGCGGCACCUGCCGCCGGUGGUAAAAAAGAUCGGAAGAGCACACGUCU
# Variants of: B1
# Assay: aptazyme ON/OFF ratio, guanine; higher = stronger switching; co-transcriptional cleavage with and without guanine
row,Variant,aptazyme ON/OFF ratio
1,U7A U8G U10C U11C C12G C13U,1.19
2,U7A U8G U10C U11C C12G C13A,1.07
3,U7A U8G U10C U11C C12G C13G,1.26
4,U7A U8G U10G U11A C12U C13G,0.975
5,U7A U8G U10G U11A C12U C13A,1.21
6,U7A U8G U10G U11A C12U C13U,1.15
7,U7A U8G U10C U11G C12G C13A,1.19
8,U7A U8G U10C U11G C12G C13G,1.35
9,U7A U8G U10C U11G C12G C13U,1.41
10,U7A U8G U10C U11C C12A C13G,1.3
11,U7A U8G U10C U11C C12A C13A,1.61
12,U7A U8G U10C U11C C12A C13U,1.49
13,U7A U8G U10G U11C C12G C13A,1.22
14,U7A U8G U10G U11C C12G C13U,1.56
15,U7A U8G U10G U11C C12G C13G,1.22
16,U7A U8G U10G U11A C12G C13G,1.46
17,U7A U8G U10G U11A C12G C13U,1.46
18,U7A U8G U10G U11A C12G C13A,1.24
19,U7A U8G U10A U11A C12G C13U,1.63
20,U7A U8G U10A U11A C12G C13G,1.26
21,U7A U8G U10A U11A C12G C13A,1.56
22,U7A U8G U10A U11C,1.11
23,U7A U8G U10A U11G,1.95
24,U7A U8G U10A U11A,2.54

row,Variant,aptazyme ON/OFF ratio
1,U7A U8G U10G U11C C12U,1.53
2,U7A U8G U10G U11C C12G,1.14
3,U7A U8G U10G U11C C12A,1.21
4,U7A U8G G9U U10G U11A C13G,1.25
5,U7A U8G G9U U10G U11A C13U,1.14
6,U7A U8G G9U U10G U11A C13A,1.17
7,U7A U8G U10A U11A C13A,1.28
8,U7A U8G U10A U11A C13U,1.1
9,U7A U8G U10A U11A C13G,1.38
10,U7A U8G U10A U11A C12U C13G,1.25
11,U7A U8G U10A U11A C12U C13A,1.72
12,U7A U8G U10A U11A C12U C13U,1.28
13,U7A U8G U11C C12U C13G,1.03
14,U7A U8G U11C C12U C13A,1.43
15,U7A U8G U11C C12U C13U,1.36
16,U7A U8G U10G U11G C13A,1.39
17,U7A U8G U10G U11G C13U,1.32
18,U7A U8G U10G U11G C13G,1.29
19,U7A U8G U10A C12U,1.17
20,U7A U8G U10A C12A,1.23
21,U7A U8G U10A C12G,1.22
22,U7A U8G U11G C12G C13G,1.32
23,U7A U8G U11G C12G C13U,1.42
24,U7A U8G U11G C12G C13A,1.15

row,Variant,aptazyme ON/OFF ratio
1,U7A U8G U10C U11G C12A,1.43
2,U7A U8G U10C U11G C12U,1.29
3,U7A U8G U10C U11G C12G,1.33
4,U7A U8G U11C C12A C13G,1.12
5,U7A U8G U11C C12A C13A,1.17
6,U7A U8G U11C C12A C13U,1.19
7,U7A U8G U10A U11A C12A C13G,1.38
8,U7A U8G U10A U11A C12A C13A,1.34
9,U7A U8G U10A U11A C12A C13U,1.12
10,U7A U8G U10A U11C C12G C13G,1.26
11,U7A U8G U10A U11C C12G C13A,1.56
12,U7A U8G U10A U11C C12G C13U,1.21
13,U7A U8G U10C C12U C13A,1.55
14,U7A U8G U10C C12U C13U,1.51
15,U7A U8G U10C C12U C13G,1.4
16,U7A U8G G9U U10G U11C C13A,1.12
17,U7A U8G G9U U10G U11C C13G,1.07
18,U7A U8G G9U U10G U11C C13U,1.05
19,U7A U8G U10G U11G C12A C13U,1.41
20,U7A U8G U10G U11G C12A C13A,1.22
21,U7A U8G U10G U11G C12A C13G,1.47
22,U7A U8G U10C U11C C12A,1.62
23,U7A U8G U10C U11C C12U,1.53
24,U7A U8G U10C U11C C12G,1.42

row,Variant,aptazyme ON/OFF ratio
1,U7A U8G U10G C12U C13G,1.28
2,U7A U8G U10G C12U C13U,1.26
3,U7A U8G U10G C12U C13A,1.11
4,U7A U8G U10C C13U,1.4
5,U7A U8G U10C C13A,1.45
6,U7A U8G U10C C13G,1.32
7,U7A U8G G9U U10G U11G,1.38
8,U7A U8G G9U U10G U11A,1.16
9,U7A U8G G9U U10G U11C,1.03
10,U7A U8G U10G C12A C13G,1.12
11,U7A U8G U10G C12A C13U,1.15
12,U7A U8G U10G C12A C13A,1.04
13,U7A U8G U10A U11G C12A C13G,1.21
14,U7A U8G U10A U11G C12A C13U,1.08
15,U7A U8G U10A U11G C12A C13A,1.28
16,U7A U8G G9U U11C C12U,1.54
17,U7A U8G G9U U11C C12A,1.23
18,U7A U8G G9U U11C C12G,1.26
19,U7A U8G U10A C12G C13U,1.21
20,U7A U8G U10A C12G C13A,1.24
21,U7A U8G U10A C12G C13G,1.26
22,U7A U8G G9U U11A C12G C13A,1.11
23,U7A U8G G9U U11A C12G C13G,1.26
24,U7A U8G G9U U11A C12G C13U,1.39

row,Variant,aptazyme ON/OFF ratio
1,U7A U8G U10A U11C C12G,1.15
2,U7A U8G U10A U11C C12A,1.49
3,U7A U8G U10A U11C C12U,1.29
4,U7A U8G U10A U11G C13A,1.29
5,U7A U8G U10A U11G C13U,1.29
6,U7A U8G U10A U11G C13G,1.23
7,U7A U8G U10G U11G C12A,1.24
8,U7A U8G U10G U11G C12G,1.31
9,U7A U8G U10G U11G C12U,1.42
10,U7A U8G U10G C13U,1.55
11,U7A U8G U10G C13A,1.26
12,U7A U8G U10G C13G,1.14
13,U7A U8G U10G U11A C13U,1.3
14,U7A U8G U10G U11A C13G,1.27
15,U7A U8G U10G U11A C13A,1.4
16,U7A U8G U10C C12A C13U,1.51
17,U7A U8G U10C C12A C13A,1.41
18,U7A U8G U10C C12A C13G,1.25
19,U7A U8G G9U U10G U11C C12U C13G,1.47
20,U7A U8G G9U U10G U11C C12U C13U,1.05
21,U7A U8G G9U U10G U11C C12U C13A,1.1
22,U7A U8G U10C U11G C12U C13G,1.44
23,U7A U8G U10C U11G C12U C13U,1.31
24,U7A U8G U10C U11G C12U C13A,1.26

row,Variant,aptazyme ON/OFF ratio
1,U7A U8G U11G C12A,1.31
2,U7A U8G U11G C12G,1.36
3,U7A U8G U10C U11A C12G C13U,1.31
4,U7A U8G U10C U11A C12G C13G,1.28
5,U7A U8G U10C U11A C12G C13A,1.22
6,U7A U8G U10C U11G C13U,1.53
7,U7A U8G U10C U11G C13A,1.23
8,U7A U8G U10C U11G C13G,1.07
9,U7A U8G G9U U10G U11C C12A,1.19
10,U7A U8G G9U U10G U11C C12U,1.04
11,U7A U8G G9U U10G U11C C12G,1.16
12,U7A U8G U11A,1.49
13,U7A U8G U11C,1.32
14,U7A U8G U11G,1.95
15,U7A U8G U11A C12U C13U,1.18
16,U7A U8G U11A C12U C13G,1.35
17,U7A U8G U11A C12U C13A,1.5
18,U7A U8G U10G C12U,1.37
19,U7A U8G U10G C12G,1.21
20,U7A U8G U10G C12A,1.17
21,U7A U8G G9U U10G C13U,1.23
22,U7A U8G G9U U10G C13A,1.3
23,U7A U8G G9U U10G C13G,1.32
24,U7A U8G U10A U11C C12U C13G,1.41

row,Variant,aptazyme ON/OFF ratio
1,U7A U8G U10A U11C C12U C13A,1.14
2,U7A U8G U10A U11C C12U C13U,1.33
3,U7A U8G U10G U11C C13G,1.29
4,U7A U8G U10G U11C C13U,1.3
5,U7A U8G U10G U11C C13A,1.11
6,U7A U8G U10G U11A C12G,1.59
7,U7A U8G U10G U11A C12U,1.33
8,U7A U8G U10G U11A C12A,1.09
9,U7A U8G U10C U11A C12U C13G,0.954
10,U7A U8G U10C U11A C12U C13U,1.18
11,U7A U8G U10C U11A C12U C13A,1.35
12,U7A U8G U10A U11G C12U C13U,1.32
13,U7A U8G U10A U11G C12U C13A,1.15
14,U7A U8G U10A U11G C12U C13G,1.21
15,U7A U8G G9U U10G U11G C12G,1.35
16,U7A U8G G9U U10G U11G C12A,1.38
17,U7A U8G G9U U10G U11G C12U,1.36
18,U7A U8G U10A U11C C12A C13G,1.26
19,U7A U8G U10A U11C C12A C13A,1.26
20,U7A U8G U10A U11C C12A C13U,1.53
21,U7A U8G U10G U11G C12U C13G,1.33
22,U7A U8G U10G U11G C12U C13U,1.38
23,U7A U8G U10G U11G C12U C13A,1.31
